Data reported in patent US20220153832A1 (PIONYR IMMUNOTHERAPEUTICS, published 2022).

Experiments:
[1] = target: T1, Human Macrophage Receptor with Collagenous Structure (MARCO), full length, on cells (human, UniProt Q9UEW3 1-520); test: cell-based competition with AF488 E. coli binding to cells expressing MARCO
T1 construct: the cell type is named under assay; also called huMARCO; HuMARCO
T1 sequence: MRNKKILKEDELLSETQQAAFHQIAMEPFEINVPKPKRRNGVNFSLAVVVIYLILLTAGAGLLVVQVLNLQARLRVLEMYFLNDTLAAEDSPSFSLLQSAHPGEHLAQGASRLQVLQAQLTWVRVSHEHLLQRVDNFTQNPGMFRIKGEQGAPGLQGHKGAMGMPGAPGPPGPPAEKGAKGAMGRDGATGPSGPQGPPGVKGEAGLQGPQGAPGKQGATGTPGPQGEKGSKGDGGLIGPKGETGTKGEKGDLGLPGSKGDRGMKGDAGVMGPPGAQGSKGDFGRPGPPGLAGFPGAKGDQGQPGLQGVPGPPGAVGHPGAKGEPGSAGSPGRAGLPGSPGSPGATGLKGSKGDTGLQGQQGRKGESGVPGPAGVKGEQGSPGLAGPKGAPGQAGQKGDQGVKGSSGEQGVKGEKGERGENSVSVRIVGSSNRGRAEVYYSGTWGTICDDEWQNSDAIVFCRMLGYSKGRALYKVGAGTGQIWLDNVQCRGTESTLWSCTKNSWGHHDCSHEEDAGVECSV
Protocol: Zombie NIR viability dye (BioLegend), prepared by diluting the stock 1000-fold in D-PBS, was added to the cells and incubated for 10 min at RT in the dark. The reaction was quenched by adding 1 m of 4× Staining buffer (2% FBS in DBPS containing Ca2+), followed by centrifugation at 400×g for 5 min at 4° C. Cells were then plated in V-shaped 96 well plates at a density of 100,000 cells. A488-fluorescently labeled bacteria (E. coli from Invitrogen) was added at 10 μg/ml with the anti-human MARCO antibodies of interest for a 30 min incubation at 37 C. Plates were then washed twice followed by resuspension in 100 ul of staining buffer for acquisition on the flow cytometer (Attune NxT, Life Technologies). Flow cytometry data were analyzed using FlowJo software (version 10.6.1) and data were processed and further analyzed in Microsoft Excel and GraphPad Prism software (version 8).

[2] = target: T2, recombinant cynomolgus MARCO protein (cynomolgus, UniProt A0A2K5X0Z2 65-519); test: SPR, single cycle (sc)
T2 construct: Construct not described; also called cyno MARCO; cynoMARCO
T2 sequence: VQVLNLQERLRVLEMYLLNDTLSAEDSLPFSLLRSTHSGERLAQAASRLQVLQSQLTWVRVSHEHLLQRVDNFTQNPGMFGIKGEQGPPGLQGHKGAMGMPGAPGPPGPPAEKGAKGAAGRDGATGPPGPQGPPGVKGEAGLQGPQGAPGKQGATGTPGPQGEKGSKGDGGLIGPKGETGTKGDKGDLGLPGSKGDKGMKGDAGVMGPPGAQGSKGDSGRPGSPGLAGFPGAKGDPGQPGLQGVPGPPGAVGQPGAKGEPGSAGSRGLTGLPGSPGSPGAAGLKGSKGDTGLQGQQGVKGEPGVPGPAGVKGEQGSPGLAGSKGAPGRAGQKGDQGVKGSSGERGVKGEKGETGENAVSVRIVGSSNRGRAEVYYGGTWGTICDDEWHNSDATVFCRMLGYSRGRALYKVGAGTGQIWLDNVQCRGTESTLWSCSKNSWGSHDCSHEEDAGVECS

[3] = target: T3, N-terminally polyhistidine tagged human MARCO ECD (147-520), recombinant (human, UniProt Q9UEW3 147-520); test: SPR, single cycle (sc)
T3 construct: also called PI-RG-3000; recombinant human MARCO; not shown: N-terminal polyhistidine tag
T3 sequence: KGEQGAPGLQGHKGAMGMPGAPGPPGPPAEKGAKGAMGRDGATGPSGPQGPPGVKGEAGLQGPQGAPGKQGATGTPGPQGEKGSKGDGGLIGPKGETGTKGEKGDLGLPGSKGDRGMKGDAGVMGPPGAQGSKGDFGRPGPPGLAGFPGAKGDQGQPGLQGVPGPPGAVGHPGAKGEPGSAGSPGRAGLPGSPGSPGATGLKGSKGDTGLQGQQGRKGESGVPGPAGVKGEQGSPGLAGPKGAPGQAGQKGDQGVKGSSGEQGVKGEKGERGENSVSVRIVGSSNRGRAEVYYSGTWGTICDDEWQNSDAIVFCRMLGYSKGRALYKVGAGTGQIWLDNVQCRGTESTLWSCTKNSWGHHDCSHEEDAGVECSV

[4] = target: T1, Human Macrophage Receptor with …; test: flow cytometry, cells overexpressing human MARCO
[5] = target: T4, Cynomolgus MARCO, full length, on cells (cynomolgus, UniProt A0A2K5X0Z2 1-519); test: flow cytometry, cells overexpressing cyno MARCO
T4 construct: whole, on cells; also called cyno MARCO; CyMARCO
T4 sequence: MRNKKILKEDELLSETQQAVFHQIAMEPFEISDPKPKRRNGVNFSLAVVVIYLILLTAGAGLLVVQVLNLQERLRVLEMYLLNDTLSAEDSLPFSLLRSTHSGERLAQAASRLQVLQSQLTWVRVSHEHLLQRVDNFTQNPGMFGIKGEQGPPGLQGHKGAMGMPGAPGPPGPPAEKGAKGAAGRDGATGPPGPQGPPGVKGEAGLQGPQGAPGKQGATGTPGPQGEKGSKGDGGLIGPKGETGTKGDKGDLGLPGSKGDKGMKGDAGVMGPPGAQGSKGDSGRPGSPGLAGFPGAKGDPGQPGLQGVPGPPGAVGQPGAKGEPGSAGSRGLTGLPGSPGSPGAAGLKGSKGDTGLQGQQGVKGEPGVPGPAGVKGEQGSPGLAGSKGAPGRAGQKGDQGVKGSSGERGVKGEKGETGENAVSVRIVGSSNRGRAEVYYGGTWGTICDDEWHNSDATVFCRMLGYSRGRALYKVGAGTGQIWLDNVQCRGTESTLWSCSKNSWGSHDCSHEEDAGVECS

[6] = target: T3, N-terminally polyhistidine tagged human …; test: Biacore; deamidation stress sample (40 C 2 week)
[7] = target: T4, Cynomolgus MARCO, full length, on cells; test: flow cytometry, cells overexpressing cyno MARCO; cyn (second of hu/cyn)
[8] = target: T3, N-terminally polyhistidine tagged human …; test: Biacore, recombinant human MARCO; control sample
[9] = target: T3, N-terminally polyhistidine tagged human …; test: ELISA readout A450-A620; the panel names no target, the legend says MARCO expressing cells; stable transfection pools
[10] = target: T3, N-terminally polyhistidine tagged human …; test: Biacore; isomerization/fragmentation stress sample
[11] = target: T3, N-terminally polyhistidine tagged human …; test: Biacore; sample stressed 40 C 2 week
Protocol: Binding of the stressed samples to recombinant human MARCO was assessed by Biacore.

[12] = target: T3, N-terminally polyhistidine tagged human …; test: Biacore (SPR), recombinant human MARCO
In short: (§1)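 Antibodies were captured by anti-mouse Fc mAb amine-coupled to a CM4 chip (4500 RU target). Running buffer was 10 mM HEPES pH 7.4, 150 mM NaCl, 3 mM EDTA, 0.05% surfactant P20. Injections were at 0.625–10 nM with 90 s association and 600 s dissociation, and constants were fitted in BIAevaluation 3.1.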

[13] = target: T3, N-terminally polyhistidine tagged human …; test: ELISA on hMARCO ECD with 2 mM Ca2+, A450-A620
[14] = target: T3, N-terminally polyhistidine tagged human …; test: Biacore (SPR), binding affinity to human MARCO
In short: as §1

[15] = target: T1, Human Macrophage Receptor with …; test: flow cytometry, cells overexpressing human MARCO; hu (first of hu/cyn)
[16] = target: T2, recombinant cynomolgus MARCO protein; test: Biacore (SPR), recombinant cyno MARCO
[17] = target: T3, N-terminally polyhistidine tagged human …; test: ELISA readout A450-A620; the panel names no target, the legend says MARCO expressing cells; transiently made reference antibody
[18] = target: T3, N-terminally polyhistidine tagged human …; test: ELISA on hMARCO ECD with 2 mM EDTA, A450-A620

Binder	EC50 [1]	Kd [2]	Kd [3]	EC50 [4]	EC50 [5]	Kd [6]	EC50 [7]	Kd [8]	EC50 (read off the curve) [9]	Kd [10]	Kd [11]	Kd [12]	koff [12]	EC50 (read off the curve) [13]	Kd [14]	EC50 [15]	Kd [16]	EC50 (read off the curve) [17]	EC50 (read off the curve) [18]
PI-3012-AB (antibody, human IgG1, kappa, V domains shown) VH: QVQLQESGPGLVKPSETLSLTCTVSGFSLTSYHVSWVRQPPGKGLEWIGAIWTGGSIAYNPSLKSRVTISRDTSKNQVSLKLSSVTAADTAVYYCARDLSDYYSSYTSFDYWGQGTLVTVSS VL: DIQMTQSPSSLSASVGDRVTITCRASEGISNDLAWYQQKPGKAPKLLIYAASRLQSGVPSRFSGSGSGTDYTLTISSLQPEDFATYYCQQSYKYPLTFGQGTKLEIKR	0.12 nM	0.735 nM	1.13 nM	0.57 nM	1.4 nM	–	–	–	–	–	–	–	–	–	–	–	–	–	–
PI-3025-AB (antibody, human IgG1, kappa, also called PI-3025-AB2) heavy: not shown light: DIQMTQSPSSLSASVGDRVTITCRASEGISNDLAWYQQKPGKAPKLLIYAASRLQDGVPSRFSGSGSGTDYTLTISSLQPEDFATYYCQQSYKYPLTFGQGTKLEIKRTVAAPSVFIFPPSDEQLKSGTASVVCLLNNFYPREAKVQWKVDNALQSGNSQESVTEQDSKDSTYSLSSTLTLSKADYEKHKVYACEVTHQGLSSPVTKSFNRGEC	–	–	–	–	–	0.66 nM	1.01 nM	0.54 nM	~0.2 nM	0.66 nM	0.58 nM	1.09 nM	0.00043 s⁻¹	~1 nM	1.09 nM	0.79 nM	1.79 nM	~0.2 nM	–
PI-3032-AB (antibody, human IgG1, kappa, V domains shown, calcium independent) VH: EVQLVESGGGLVQPGGSLRLSCAASKFTFSNYGMNWIRQAPGKGLEWIALIYYNSNNKYYADSVKGRFTISRDNSKNTLYLQMNSLRAEDTAVYYCAKSLTGGSDYFDSWGQGTLVTVSS VL: DIQMTQSPSSLSASVGDRVTITCRASKSIGTFLAWYQQKPGKAPKLLIYSGSTLESGVPSRFSGSGSGTDFTLTISSLQPEDFATYYCQQHDEYPFTFGQGTKLEIKR	–	–	–	–	–	–	–	–	–	–	–	–	–	~0.9 nM	–	–	–	–	~0.2 nM
PI-3041-AB (antibody, human IgG1, kappa, Humanized PI-HX-3011, hIgG1) heavy: not shown light: DIQMTQSPSSLSASVGDRVTITCRASAGISNDLAWYQQKPGKAPKLLIYAASRLQDGVPSRFSGSGSGTDFTLTISSMQPEDFATYYCQQSYKYPWTFGQGTKLEIKRTVAAPSVFIFPPSDEQLKSGTASVVCLLNNFYPREAKVQWKVDNALQSGNSQESVTEQDSKDSTYSLSSTLTLSKADYEKHKVYACEVTHQGLSSPVTKSFNRGEC	–	–	–	–	–	0.39 nM	1.03 nM	0.24 nM	~0.2 nM	0.34 nM	0.36 nM	0.82 nM	0.000334 s⁻¹	~0.8 nM	0.82 nM	0.704 nM	1.12 nM	~0.2 nM	–
